Experimental findings from the Immune Epitope Database (IEDB) are described below.

This experiment deals with HLA-A*02:01. The experiment is described as follows: IEDB peptide-MHC binding, purified MHC/competitive/radioactivity; ≥ and ≤ were set here for values at or beyond the usual limits of such assays. The note with it: source organism: Human alphaherpesvirus 1.

As to GMVIACLLV, the IC50 worked out at 0.252 µM. Take GPGDPDVYL: the IC50 was 30.6 µM. Then GQAAALTDL, with 2.3 µM; and GVVIIAALV, with 1.08 µM; and HLCRYVALL, with 0.2 µM. The result for HLMRDPALL reads 0.037 µM. Take HMFCDPMCA: the IC50 is 0.796 µM.

Turning to HMGEVPPRL, the IC50 is 1.74 µM. The result for IAPNASLGV reads 0.11 µM; that for IILTLIPRL, 0.127 µM; that for IIPFLLVLV, 0.055 µM. Then IIWGELFGV, with 0.0023 µM. Then ILDAARPAV, with 0.099 µM; and ILFLWSFLV, with 0.00036 µM; and ILFSYDELV, with 0.0056 µM.

Take ILIEGIFFA: the IC50 was 0.00017 µM. Then ILLENLMRA, with 0.019 µM; and ILMHATYFL, with 0.0012 µM; and ILMILIEGI, with 0.012 µM. Then ILSPTAPSV, with 0.0061 µM.

Consider ILVVSLLLV, for which the IC50 stood at 0.205 µM.

For ILYSVLQHL, the IC50 worked out at 0.055 µM.

ITMGMPYAV: the IC50 worked out at 0.023 µM. The result for IVYLCPVLV reads 0.137 µM; that for KIFRCLTVL, 0.159 µM; that for KLAVYYYII, 0.031 µM.

For the sequence KLCSPVFAI, the concentration for half-maximal inhibition (IC50) worked out at 0.0093 µM.

In the case of KLLALLGQV, the IC50 amounted to 0.033 µM. The result for KLLWAVEPL reads 0.012 µM; that for KLMARRAQV, 0.795 µM; that for KMAQCTLAV, 0.014 µM.

For the sequence KMDIDVEYL, the IC50 came out at 0.148 µM. Then KMNQTLLFL, with 0.907 µM. In the case of KMSYPQFLA, the IC50 was found to be 1.4 µM. In the case of KQLNYCHLI, the IC50 came out at 0.398 µM. The result for KSMDDDTYV reads 0.689 µM. In the case of KTWFLVPLI, the IC50 came out at 0.0017 µM. Then LITDDGEVV, with 13.7 µM. The result for LITNYLPSV reads 0.0052 µM; that for LLAENLPGL, 0.0011 µM. Then LLAFDTQPV, with 0.0093 µM; and LLAKMLFYL, with 0.0056 µM; and LLANNPPPV, with 0.024 µM. Take LLANTVRYL: the IC50 is 0.075 µM. Then LLAPGPLFV, with 0.0056 µM; and LLAQFQHTV, with 0.0012 µM. Then LLAVAVYAV, with 0.0058 µM. Then LLDDLGFSA, with 0.046 µM; and LLDFELACL, with 0.063 µM. For LLDTGPFSA, the IC50 is 0.093 µM. The result for LLFNSLYPA reads 0.0015 µM; that for LLFVLLVAL, 1.13 µM. As to LLGGVMAAV, the IC50 was found to be 0.025 µM. The result for LLGQVQTYV reads 0.018 µM; that for LLIDTGVYA, 0.094 µM. The result for LLLAGTPAV reads 0.017 µM; that for LLLALRHPA, 0.6 µM. The result for LLLAVAVYA reads 0.093 µM; that for LLLHSLTPL, 0.0069 µM; that for LLLISMYAL, 0.0047 µM. LLLMGCDIV: the IC50 was 0.094 µM. The result for LLLNTTLTV reads 0.0029 µM. Then LLLRQWLHV, with 0.207 µM; and LLLVRAYWL, with 0.063 µM; and LLMACAFWC, with 0.974 µM. Then LLMGCDIVL, with 0.0023 µM.

LLMNELLRV: the IC50 turned out to be 0.0084 µM. Then LLMVAVIMAI, with 0.009 µM; and LLNNYDVLV, with 0.01 µM.

Turning to LLPAVQCAV, the IC50 stood at 0.063 µM. Then LLPEIAPNA, with 0.03 µM; and LLQRANELV, with 0.635 µM.

For the sequence LLSALGLSV, the IC50 is 0.0089 µM.

As to LLSGLPTYA, the IC50 stood at 0.177 µM.

Regarding LLSNTLAEL, the concentration for half-maximal inhibition (IC50) is 0.0051 µM. The result for LLVEVLREI reads 0.0016 µM; that for LLYDLSTTA, 0.043 µM. The result for LLYLITNYL reads 0.011 µM. Then LLYNGAYHL, with 0.0076 µM; and LMDGHTGMV, with 0.184 µM.

In the case of LMFDPRALA, the IC50 worked out at 0.762 µM. LMHATYFLA: the IC50 turned out to be 0.096 µM.

Consider LMPSPPMPV, for which the IC50 came out at 0.124 µM. Then LVLNMVYSI, with 0.094 µM. The result for LVVTAIVYV reads 0.187 µM. In the case of LVWYTVFGA, the IC50 came out at 0.346 µM. Regarding MILALTVAI, the IC50 stood at 0.045 µM. The result for MLCGFSPAL reads 0.0085 µM; that for MLDTWNEDL, 0.102 µM. Then MLIDLGLDL, with 0.014 µM; and MLIKGVDLV, with 0.016 µM. Then MLLAFMTLV, with 0.0057 µM; and MLLATREYV, with 0.046 µM; and MLRDRWSLV, with 0.311 µM. Turning to MLWTTDKHV, the IC50 is 1.29 µM.

With MLYVIFPGT, the IC50 turned out to be 0.317 µM.

Turning to MMLRDRWSL, the IC50 turned out to be 0.014 µM. Then MQFVDRFVV, with 0.209 µM. Then MVIACLLVA, with 0.166 µM. Then NIGAYVVLV, with 0.282 µM; and NTLMFMVYV, with 0.069 µM; and QLFEAHPNV, with 0.256 µM. As to QLFPGLAAL, the IC50 was 0.016 µM. Then QLLADFPEA, with 0.133 µM. With QLLDPPAAV, the IC50 was determined as 0.186 µM. The result for QLLSAVDYI reads 0.127 µM; that for QLQAAIFHA, 0.697 µM; that for RIQQYMFFM, 0.081 µM. Then RLAEAVVSA, with 0.075 µM. The result for RLARCLTPA reads 0.023 µM; that for RLASLLTYA, 0.0079 µM; that for RLATHLRAV, 0.159 µM. As to RLCLDVPPV, the IC50 was 0.0085 µM.

For the sequence RLDAEYWSV, the IC50 was found to be 0.044 µM.

Consider RLDALVVAA, for which the IC50 is 0.044 µM. The result for RLDSLDLTL reads 0.101 µM; that for RLFDFFSRV, 0.0002 µM. The result for RLIDRMLTA reads 0.0086 µM; that for RLLEVMDSL, 0.144 µM; that for RLLGFADTV, 0.027 µM.

RLLQSFLKV: the 50% inhibitory concentration (IC50) turned out to be 0.082 µM. Then RLMNDWAEV, with 0.024 µM; and RLNNRPIAV, with 0.02 µM; and RLPHICYPV, with 0.017 µM.

As to RLPLYEALV, the IC50 was determined as 0.095 µM. Then RLPPHTQPV, with 0.031 µM; and RLPRYLACL, with 0.076 µM; and RLQEALAVV, with 0.0066 µM. Then RLQFGPPPV, with 0.011 µM; and RLQHLVAEI, with 0.142 µM. Take RLQTYLTDI: the IC50 is 0.827 µM. The result for RLSPFPALV reads 0.06 µM; that for RLTEDDFGL, 0.077 µM. The result for RLTGVTSLV reads 0.013 µM. Regarding RLTGYPAGI, the IC50 turned out to be 1.1 µM. Take RLVDGVGGI: the IC50 is 0.217 µM.

In the case of RLVVVGWFL, the IC50 was 0.865 µM. With RLYRWQPDL, the IC50 came out at 0.916 µM. Then RMFGMPTAL, with 0.0055 µM. Then RMGELTAEI, with 0.091 µM; and RMLGDVMAV, with 0.0017 µM; and RMWAWIHGL, with 0.061 µM. Then RTAWWVWCV, with 0.026 µM; and RVYNIIQLV, with 19.7 µM. SEEEGNFYV: the IC50 was found to be 19.2 µM. Then SLDAKQWSV, with 0.0075 µM; and SLFDCIVPV, with 0.00017 µM. The result for SLLALNEAL reads 0.054 µM; that for SLLDSLLVM, 0.076 µM. Then SLLLVVEGV, with 0.0088 µM. As for SLLSLEHTL, the IC50 came to 0.055 µM.

On to SLLWLGAGV, for which the IC50 amounted to 0.054 µM. Then SLMNVDAAV, with 0.0097 µM; and SLNARGLLV, with 0.145 µM. SLQQELAHM: the IC50 worked out at 0.071 µM. Then SLRNVLAAV, with 0.0054 µM; and SLSTYTVPI, with 0.013 µM. The result for SLYDVEFDA reads 0.0097 µM. Then SMDDDTYVA, with 0.546 µM; and SMFASCNLL, with 0.029 µM; and SPGGFVQFV, with 0.45 µM. Consider SQLAHLVYV, for which the IC50 worked out at 0.062 µM. The result for SQTQPPAPV reads 0.781 µM; that for SVYALGFGV, 1.3 µM. Then TIHCFFFAV, with 0.108 µM; and TISKPSEAV, with 4.78 µM. The result for TLIPRLFAL reads 0.035 µM.

In the case of TLLDFAHGL, the IC50 was 0.01 µM. Then TLLDQNNAL, with 0.039 µM; and TLLELVVSV, with 0.0018 µM; and TLLRLACEV, with 0.065 µM. The result for TLRDTIPDC reads 1.39 µM; that for TLRGLFFSV, 0.094 µM; that for TLSGMGYYL, 0.148 µM. Then TMLEDHEFV, with 0.118 µM.

Consider TMRDDLPLV, for which the IC50 came to 0.061 µM. Then VIACLLVAV, with 0.205 µM.

Take VILPACAFV: the 50% inhibitory concentration (IC50) came out at 0.0062 µM. The result for VLAAGVLVV reads 0.234 µM; that for VLAAVLLGA, 0.052 µM; that for VLADAINGL, 0.086 µM.

For the sequence VLADDVYPL, the IC50 was 0.0024 µM. Then VLANFCSAL, with 0.014 µM; and VLCGIAWYV, with 0.0079 µM; and VLDCVVTGA, with 0.973 µM. Then VLDEVMSTL, with 0.045 µM; and VLFSGPSPL, with 0.0079 µM; and VLGAAIWWV, with 0.073 µM. Then VLGAAVYAL, with 0.1 µM. For the sequence VLGCDAALV, the IC50 was 0.521 µM. Then VLLEKAPPL, with 0.024 µM; and VLLGAPVVV, with 0.014 µM. Then VLMDGHTGM, with 0.136 µM. On to VLNTLMFMV, for which the IC50 turned out to be 0.014 µM. The result for VLPATFAAV reads 0.011 µM; that for VLTEPLCQV, 0.071 µM; that for VLVVQPAPV, 0.112 µM.

Take VLWSLLWLG: the IC50 was found to be 0.0014 µM.

Consider VMAARPMVV, for which the IC50 was found to be 0.266 µM.
